Values of other authors in publication PMC3234256.

Target: Lys73 (UniProt position 71, MMSTFKVLLCG)
Experiment: NMR

## TEM-1 beta-lactamase (class A) (Escherichia coli)
  pKa: above 10
